The supplement of paper PMC12338614
± gives the uncertainty stated by the source.

B1: library; numbered along this chain (parent)
chain: MEVVDPQQLGMFTEGELMSVGMDTFIHRIDSTEVIYQPRRKRAKLIGKYLMGDLLGEGSYGKVKEVLDSETLCRRAVKILKKKKLRRIPNGEANVKKEIQLLRRLRHKNVIQLVDVLYNEEKQKMYMVMEYCVCGMQEMLDSVPEKRFPVCQAHGYFCQLIDGLEYLHSQGIVHKDIKPGNLLLTTGGTLKISDLGVAEALHPFAADDTCRTSQGSPAFQPPEIANGLDTFSGFKVDIWSAGVTLYNITTGLYPFEGDNIYKLFENIGKGSYAIPGDCGPPLSDLLKGMLEYEPAKRFSIRQIRQHSWFRKKHPPAEAPVPIPPSPDTKDRWRSMTVVPYLEDLHGADEDEDLFDIEDDIIYTQDFTVPGQVPEEEASHNGQRRGLPKAVCMNGTEAAQLSTKSRAEGRAPNPARKACSASSKIRRLSACKQQ

Variants of: B1
Test: STK11 functional score (HeLa growth suppression), rescaled enrichment; synonymous median = 1, nonsense median = 0 (normalised score)
Details: with HeLa; variant type: missense
Method in brief: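 The values are functional scores: wild-type-corrected log ratios of post- versus pre-selection abundance, rescaled to synonymous and nonsense medians, merged over codons and replicate transfections, and carrying bootstrapped error. They derive from codon-randomised (POPCode), codon-optimised STK11 libraries that Bxb1 integrated at an AAVS1 landing pad in HeLa, with three transfections for each of three regions. Sequencing of tiled gDNA amplicons ran on NextSeq, at ~2 million reads per tile.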

Variant | STK11 functional score
D176P | 0.0199 ± 0.077
I274C | 0.973 ± 0.19
A347F | 1.37 ± 0.25
G370I | 1.6 ± 0.29
L17W | 1.56 ± 0.24
K329N | 1.36 ± 0.49
Q37H | 0.921 ± 0.36
A347W | 1.59 ± 0.16
P222E | 0.0466 ± 0.58
G270N | 1.4 ± 0.35
H313R | -0.189 ± 0.069
L245C | 0.21 ± 0.093
L160P | -0.129 ± 0.071
H154P | -0.204 ± 0.089
Q159S | 0.691 ± 0.22
C278A | 1.29 ± 0.29
T230V | 1.5 ± 0.18
Q100E | 1.25 ± 0.76
P222Q | 0.712 ± 0.2
L344Y | 0.904 ± 0.2
E351G | 1.33 ± 0.12

Variant | STK11 functional score
K388Y | 1.07 ± 0.35
R384T | 1.15 ± 0.46
H168I | 0.159 ± 0.098
K84L | 1.64 ± 0.17
T244D | -0.0204 ± 0.1
R211I | 0.844 ± 0.4
R426K | 1.49 ± 0.28
L102G | 1.07 ± 0.08
D176R | -0.0226 ± 0.15
P315G | 1.29 ± 0.39
A318R | 1.43 ± 0.34
T395R | 1.58 ± 0.28
Q112L | 1.08 ± 0.2
T402A | 1.42 ± 0.28
Q123Y | 1.01 ± 0.22
P280S | 1.16 ± 0.34
G56V | 0.273 ± 0.08
S422Q | 1.58 ± 0.13
R426D | 1.42 ± 0.27
V133S | 1.06 ± 0.3
E92Y | 1.32 ± 0.26

Variant | STK11 functional score
I224V | 0.835 ± 0.24
K108D | 0.31 ± 0.081
Q302A | 1.45 ± 0.33
G56Y | -0.102 ± 0.094
S271M | 1.5 ± 0.21
A414L | 1.16 ± 0.34
G251W | -0.00281 ± 0.1
M127S | 0.857 ± 0.15
V20P | 1.43 ± 0.45
V368Q | 0.833 ± 0.5
A273M | 0.796 ± 0.8
L245M | 0.526 ± 0.22
P373W | 1.6 ± 0.2
D229H | 0.539 ± 0.17
S404F | 0.794 ± 0.61
V243P | -0.157 ± 0.11
K423W | 1.49 ± 0.15
C210L | 0.435 ± 0.12
A273W | 1.65 ± 0.18
F204I | 1.23 ± 0.25
L101V | 0.836 ± 0.1

Variant | STK11 functional score
N393K | 0.96 ± 0.51
L80G | 0.429 ± 0.082
S404E | 1.34 ± 0.5
M289A | 0.107 ± 0.21
K122F | 1.25 ± 0.21
N119H | 1.3 ± 0.22
L113V | 0.44 ± 0.1
V110C | 0.955 ± 0.44
S232M | 0.515 ± 0.49
G385M | 1.59 ± 0.24
I361L | 1.31 ± 0.35
P89T | 0.786 ± 0.13
A318D | 1.51 ± 0.18
K178T | 0.951 ± 0.27
Y261F | 0.449 ± 0.14
P275Y | 0.943 ± 0.55
K41F | 1.14 ± 0.082
S419K | 1.39 ± 0.21
S213I | 0.902 ± 0.14
L183F | 0.885 ± 0.55
